{"source": "patent US20220347267A1", "about": "“METHODS TO IMPROVE PATIENT RESPONSE TO IMMUNE CHECKPOINT INHIBITORS AND FUNCTIONAL TESTS TO PREDICT RESPONSE” (Biomarker Strategies, LLC, priority 2019, published 2022)", "molecules": {"B1": {"name": "IFNγ: human IFNγ, modulator (10 ng/ml; Sigma Aldrich) (protein, UniProt P01579 24-161, looked up)", "Interferon gamma": "QDPYVKEAENLKKYFNAGHSDVADNGTLFLGILKNWKEESDRKIMQSQIVSFYFKLFKNFKDDQSIQKSVETIKEDMNVKFFNSNKKKRDDFEKLTNYSVTDLNVQRKAIHELIQVMAELSPAAKTGKRKRSQMLFRG"}}, "assay_in_all_cases": "PD-L1 confocal microscopy, IFNγ stimulation", "assay_type_in_all_cases": "cell-based, human", "key": {"SKMES1 cells": {"tested_on": "SKMES1 cells", "text": "(§1) To obtain fluorescent specimens, similar procedures are used when compared to flow cytometry. The sample is stained with a primary antibody that is specific for a protein of interest. The primary antibody can be conjugated to a fluorescent molecule or a secondary antibody can be used that attaches to the primary antibody. For intracellular staining of cells, the specimen can be fixed and permeabilized using methanol, formalin or a fixative containing a detergent. Subsequently, the specimen is stained with primary and/or secondary antibodies. For this dataset, samples were stained for PD-L1 in suspension using the same protocol that was used for the flow cytometry dataset. The protocol used was as follows:\n(§2) Samples (150 uL per tube) were first incubated with a blocking reagent (BD cat #564219, Lot #9305316) at 1:20 for 15 min at room temperature. Alexa 488-conjugated PD-L1 antibody (CST cat #25048, Lot #2) and Alexa 488-conjugated isotype antibody (CST cat #2975, Lot #16) were added to experimental samples and isotype control samples, respectively, at a manufacturer recommended dilution of 1:50 and the samples were incubated for 30 min at room temperature. Other fluorophore-conjugates and PD-L1 antibodies, including those targeting different epitopes, can be readily used. Additionally, antibodies detecting other biomarkers with appropriate processing (e.g. permeabilization of cells) to predict response (e.g. p-STAT-1) can be used. Following the incubation with an antibody, 1 mL of 2% FBS in PBS was added to each tube to dilute the antibody. Samples were then centrifuged at 200 rcf for 5 min. Supernatant was carefully aspirated and 200 uL of 10% neutral buffered formalin (NBF) was added. Samples were then fixed for 10 min at room temperature. NBF was diluted with 1 mL of 2% FBS in PBS and the samples were centrifuged at 200 rcf for 5 min. Supernatant was aspirated and the cells were resuspended in 0.5 mL of 2% FBS in PBS for flow cytometric analysis. In this experiment, 10% NBF was used to fix cells, but other fixatives, for example, 4% paraformaldehyde can be used. For localization experiments an anti-phosphotyrosine antibody, anti-human/mouse, PE-Vio® 770 (Miltenyi Biotec, Cat #130-109-112) and an anti-PD-L1 antibody, anti-human, Brilliant Violet 650 (BV650; BD Biosciences, Cat #563740) were used. […]\n(§3) PD-L1 was assessed in four cell lines (FIG. 35A). PD-L1 was quantified by analyzing FITC-PD-L1 using an 8-bit photomultiplier tube and quantified as raw arbitrary units (FIG. 35B). The PD-L1 expression of the four cell lines was quantified in treated and untreated conditions. […] Thus, PD-L1 expression can be measured qualitatively and quantitatively using confocal microscopy and other fluorescent microscopy techniques."}, "H1650 cells": {"tested_on": "H1650 cells", "text": "as §1, §2, §3"}, "H1299 cells": {"tested_on": "H1299 cells", "text": "as §1, §2, §3"}, "H460 cells": {"tested_on": "H460 cells", "text": "as §1, §2, §3"}}}
{"molecule": "B1", "values": [{"measurement": "PD-L1 expression by confocal microscopy, untreated and IFNγ treated", "setting": "SKMES1 cells", "value": "innate expression"}, {"measurement": "PD-L1 expression by confocal microscopy, untreated and IFNγ treated", "setting": "H1650 cells", "value": "negative"}, {"measurement": "PD-L1 expression by confocal microscopy, untreated and IFNγ treated", "setting": "H1299 cells", "value": "negative"}, {"measurement": "PD-L1 expression by confocal microscopy, untreated and IFNγ treated", "setting": "H460 cells", "value": "adaptive expression"}]}
